US20180362657A1 (University of California, published 2018)

Molecular target: T1, receptor tyrosine kinase-like orphan receptor 1 (ROR1) expressed on EW36 cells (human, UniProt Q01973 30-937)
T1 construct: whole, on cells; Endogenous ROR1 on viable EW36 human B-cell lymphoma cells; also called RORI
Test: flow cytometry on EW36 cells, culture supernatant, Alexa-488 goat anti-human IgG
Protocol: Dual parameter flow cytometry was done in a FACSCalibur instrument (BD Biosciences; Immunocytometry Systems) using an anti-human 1gG that reacted with cell bound scFV of the invention (as shown in SEQ.ID.No: 3), but not the cells used in these experiments.
Propidium iodide was added to stain dead cells, which could then be excluded from the analysis. Following incubation with the culture supernatants, the cells were washed prior to analysis using a FACSCalibu™ (Becton Dickinson, Mountain View, Calif.). The data analyzed with FlowJo™ software (Tree Star, San Carlos, Calif.). A total of 20,000-gated events were collected for each sample in a list mode file, and data analysis was done using CellQuest™ software (BD Biosciences). The relative log florescence of the cells is depicted on the x-axis. Cells staining with the Alexa-488 conjugated goat antibody are shifted to the right. A histogram of control unstained cells or cells stained with the Alexa-488 conjugated goat antibody in the absence of the scFV are provided for comparison.

T1 sequence (Q01973 30-937): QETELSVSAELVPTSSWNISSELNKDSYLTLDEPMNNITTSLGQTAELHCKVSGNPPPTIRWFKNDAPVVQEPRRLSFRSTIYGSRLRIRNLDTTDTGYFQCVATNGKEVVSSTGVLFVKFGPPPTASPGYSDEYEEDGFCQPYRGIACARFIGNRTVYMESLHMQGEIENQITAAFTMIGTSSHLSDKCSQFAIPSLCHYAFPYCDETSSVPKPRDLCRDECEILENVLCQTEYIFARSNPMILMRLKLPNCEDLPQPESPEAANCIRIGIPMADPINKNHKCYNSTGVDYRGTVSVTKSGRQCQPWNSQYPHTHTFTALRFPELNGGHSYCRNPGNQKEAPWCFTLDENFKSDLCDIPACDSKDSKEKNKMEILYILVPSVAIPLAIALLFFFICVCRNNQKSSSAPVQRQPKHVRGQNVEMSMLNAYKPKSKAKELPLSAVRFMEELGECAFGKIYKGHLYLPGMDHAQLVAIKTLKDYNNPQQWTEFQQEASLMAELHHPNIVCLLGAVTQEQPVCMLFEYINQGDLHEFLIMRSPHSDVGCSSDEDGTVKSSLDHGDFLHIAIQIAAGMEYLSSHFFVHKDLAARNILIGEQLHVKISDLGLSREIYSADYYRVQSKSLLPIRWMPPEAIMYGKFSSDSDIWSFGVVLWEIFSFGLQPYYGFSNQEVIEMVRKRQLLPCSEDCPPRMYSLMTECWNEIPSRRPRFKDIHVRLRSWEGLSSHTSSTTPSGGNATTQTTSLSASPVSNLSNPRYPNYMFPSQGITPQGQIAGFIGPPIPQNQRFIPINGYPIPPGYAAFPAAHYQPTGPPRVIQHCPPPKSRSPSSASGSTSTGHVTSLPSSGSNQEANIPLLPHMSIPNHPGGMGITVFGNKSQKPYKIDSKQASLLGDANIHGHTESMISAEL

binding result: binds
B1: pCDNA 3.1 CH2 CH3 stable scFV (anti-ROR1 mAb scFv fused to CH2 CH3) (Fc fusion)
scFv: DIKMTQSPSSMYASLGERVTITCKASPDINSYLSWFQQKPGKSPKTLIYRANRLVDGVPSRFSGGGSGQDYSLTINSLEYEDMGIYYCLQYDEFPYTFGGGTKLEMKGSTSGSGKPGSGEGSTKGEVKLVESGGGLVKPGGSLKLSCAASGFTFSSYAMSWVRQIPEKRLEWVASISRGGTTYYPDSVKGRFTISRDNVRNILYLQMSSLRSEDTAMYYCGRYDYDGYYAMDYWGQGTSVTVSS
notes: Tested as culture supernatants of stably transfected cell clones; All clones carry the same construct, so they are written as one molecule; also called scFV of the invention; not shown: CH2 CH3 domains (detected with anti-human IgG)
